According to patent publication CN111138528A (INST MILITARY MEDICINE ACADEMY MILITARY SCIENCES PLA, dated 2020):

Legend:
SUDV GP = molecular target: T1, SUDV GP (SUDV, UniProt Q7T9D9 33-650); test: ELISA, GP coated at 1 μg/mL, 5A8 in 1:3 dilutions
T1 sequence: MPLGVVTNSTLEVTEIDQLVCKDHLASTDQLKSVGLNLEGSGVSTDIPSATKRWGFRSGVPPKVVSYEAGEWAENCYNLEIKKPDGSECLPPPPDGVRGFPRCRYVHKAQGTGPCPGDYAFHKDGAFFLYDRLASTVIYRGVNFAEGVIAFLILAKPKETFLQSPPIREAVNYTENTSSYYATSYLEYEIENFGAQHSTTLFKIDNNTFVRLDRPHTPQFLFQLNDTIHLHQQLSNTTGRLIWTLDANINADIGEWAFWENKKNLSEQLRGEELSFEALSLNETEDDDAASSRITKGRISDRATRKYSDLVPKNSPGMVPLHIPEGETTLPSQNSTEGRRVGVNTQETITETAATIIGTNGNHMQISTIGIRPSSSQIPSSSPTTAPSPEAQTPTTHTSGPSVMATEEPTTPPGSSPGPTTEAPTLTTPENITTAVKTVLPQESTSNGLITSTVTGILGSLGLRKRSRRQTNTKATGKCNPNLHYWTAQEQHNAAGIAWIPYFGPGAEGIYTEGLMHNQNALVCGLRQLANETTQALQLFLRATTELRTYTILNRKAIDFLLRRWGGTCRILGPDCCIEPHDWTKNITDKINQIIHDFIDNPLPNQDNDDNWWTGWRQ

RESTV GP = molecular target: T2, RESTV GP (RESTV, UniProt Q66799 34-651); test: ELISA, GP coated at 1 μg/mL, 5A8 in 1:3 dilutions
T2 sequence: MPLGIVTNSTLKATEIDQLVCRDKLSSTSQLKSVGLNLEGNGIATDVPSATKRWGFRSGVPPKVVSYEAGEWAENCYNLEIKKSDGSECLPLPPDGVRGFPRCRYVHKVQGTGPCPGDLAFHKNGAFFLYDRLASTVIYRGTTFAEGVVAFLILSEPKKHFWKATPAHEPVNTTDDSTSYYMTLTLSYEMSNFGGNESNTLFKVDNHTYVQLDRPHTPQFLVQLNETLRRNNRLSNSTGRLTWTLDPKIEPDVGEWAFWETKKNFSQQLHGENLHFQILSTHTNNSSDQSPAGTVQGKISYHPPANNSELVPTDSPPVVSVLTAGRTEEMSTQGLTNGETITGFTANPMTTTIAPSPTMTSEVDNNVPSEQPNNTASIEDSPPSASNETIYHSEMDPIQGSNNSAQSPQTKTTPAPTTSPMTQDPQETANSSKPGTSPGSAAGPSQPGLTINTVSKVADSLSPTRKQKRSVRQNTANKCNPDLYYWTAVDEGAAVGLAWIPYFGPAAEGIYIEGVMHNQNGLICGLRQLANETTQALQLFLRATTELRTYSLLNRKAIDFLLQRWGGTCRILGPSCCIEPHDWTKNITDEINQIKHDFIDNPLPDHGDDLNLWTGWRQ

GP 227-295 = GP 227-295 (Ebola virus (EBOV), UniProt Q05320 227-295); test: ELISA, truncated GP coated, 5A8 titrated (method of Example 2)
GP 158-295 = GP 158-295 (Ebola virus (EBOV), UniProt Q05320 158-295); test: as above
GP 95-295 = GP 95-295 (Ebola virus (EBOV), UniProt Q05320 95-295); test: as above
GP 33-310;463-558 = GP 33-310;463-558 (Ebola virus (EBOV), UniProt Q05320 33-310; Q05320 463-558); test: as above
sGP = sGP (Ebola virus (EBOV), UniProt P60170 33-324); test: as above
GP1 = GP1 (Ebola virus (EBOV), UniProt Q05320 33-501); test: as above
EBOV GP = molecular target: T3, EBOV GP (Ebola virus (EBOV), UniProt Q05320 33-650); test: ELISA, GP coated at 1 μg/mL, 5A8 from 10 μg/mL in 1:3 dilutions
T3 sequence: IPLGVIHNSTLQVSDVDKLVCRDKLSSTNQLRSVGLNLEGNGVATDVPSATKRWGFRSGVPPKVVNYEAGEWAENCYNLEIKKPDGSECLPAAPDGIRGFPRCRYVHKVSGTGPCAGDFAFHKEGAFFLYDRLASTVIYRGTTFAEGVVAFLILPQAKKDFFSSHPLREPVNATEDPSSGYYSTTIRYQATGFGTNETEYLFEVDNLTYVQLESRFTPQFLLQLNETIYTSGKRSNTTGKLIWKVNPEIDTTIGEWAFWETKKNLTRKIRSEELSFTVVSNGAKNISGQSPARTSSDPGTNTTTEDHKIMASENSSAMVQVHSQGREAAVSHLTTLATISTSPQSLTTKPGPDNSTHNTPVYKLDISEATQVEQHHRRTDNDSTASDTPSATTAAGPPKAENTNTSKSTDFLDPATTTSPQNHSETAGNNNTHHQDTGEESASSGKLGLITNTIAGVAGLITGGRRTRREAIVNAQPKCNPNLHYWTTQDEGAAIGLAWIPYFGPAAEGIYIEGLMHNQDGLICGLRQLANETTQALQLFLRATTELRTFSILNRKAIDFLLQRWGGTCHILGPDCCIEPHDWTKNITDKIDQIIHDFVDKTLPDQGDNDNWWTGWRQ

B1: 单克隆抗体5A8 (antibody, V domains shown)
VH: EVQLLESGGGLVKPGGSLRLSCAASGFTFSDYYMNWIRQAPGKGLEWVSYISSSGKTIYYADSVKGRFTISRDNAKKSLYLQMNSLRAEDTAVYYCARDREIVISTTILLGSDHYAMDVWGQGTTVTVSS
VL: DIQMTQSPFTLSASVGDRVTITCRASQSINSYLNWYQQKPGKAPKLLIYSASSLQSGVPSRFSGSGSGTDFTLTISSLQPEDFAIYYCQQTYRTPYTFGQGTKVEIKT
SUDV GP
  binding result: no binding (tested: 10μg/mL (highest concentration tested))
RESTV GP
  binding result: no binding (tested: 10μg/mL (highest concentration tested))
GP 227-295
  EC50: 12.6 ng/mL
GP 158-295
  EC50: 20 ng/mL
GP 95-295
  EC50: 7.1 ng/mL
GP 33-310;463-558
  EC50: 4.9 ng/mL
sGP
  EC50: 7.5 ng/mL
GP1
  EC50: 6.9 ng/mL
EBOV GP
  EC50: 14 ng/mL
